{"source": "the RNAGym collection of RNA variant scans (doi:10.1073/pnas.2313332121)", "parents": {"B1": {"name": "TPR 5TU (parent)", "chain": "GGAUCUUCUCGAUCUAACAAAAAAGACAAAUCUGCCACAAAGCUUGAGAGCAUCUUCGGAUGCAGAGGCGGCAGCCUUCGGUGGCGCGAUAGCGCCAACGUUCUCAACUAUGACACGCAAAACGCGUGCUCCGUUGAAUGGAGUUUAUCAUG"}}, "note": "Fewer inactive variants are shown than the library holds."}
{"variants_of": "B1", "experiment": "polymerase ribozyme fitness, log enrichment relative to wild type (log ratio); higher = more active; in vitro selection for triplet polymerase activity", "summary_of_the_method": "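Both subunits of a heterodimeric triplet polymerase ribozyme were given their own mutant library, built by PCR and transcribed. Each library was annealed with a biotinylated primer, the partner subunit and triplets, incubated frozen at −7 °C, and its extended constructs gel-excised, captured on streptavidin beads and amplified by RT-PCR, all in one round done in triplicate. Fitness is the logarithm of genotype enrichment relative to wild-type enrichment, with replicates averaged by inverse-variance weighting. That logarithm is base 2, and Illumina-sequenced genotypes needed ≥10 input reads and ≥1 read per output.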"}
{"variant": "GGAUCUUCUCGAUCUAACAAAAAAGACAAAUCUGCCACAAAGCUUGAGAGCAUCGUCGGAUGCAGAGGCGGCAGCCUUCGGUGGCUCGAUAGCGCCAACGUUCUCAACUAUGACACGCAAAACGCGUGCUCCGUUGAAUGGAGUAUAUCAUG", "note": "[U55G G86U U145A]", "polymerase ribozyme fitness (log ratio)": -0.475}
{"variant": "GGAUCUUCUCGAUCUAACAAAAAAGACAAAUCUGCCACAAAGCUUGAGAGCAUCGUCGGAUGAAGAGGCGGCAGCCUUCGGUGGCGCGAUAGCGCCAACGUUCUCAACUAUGACACGCAAAACGCGUGCUCCGGUGAAUGGAGUUUAUCAUG", "note": "[U55G C63A U134G]", "polymerase ribozyme fitness (log ratio)": -3.01}
{"variant": "GGAUCUUCUCGAUCUAACAAAAAAGACAAAUCUGCCACAAAGCUUGAGAGCAUCGUCCGAUGCAGAGGCGGCAGCCUUCGGUGGCGCGAUAGCGCCAACGUUCUCAACUAUGACACGCAAAACGCGUGCUCCGUUGAAUGGAGGUUAUCAUG", "note": "[U55G G58C U144G]", "polymerase ribozyme fitness (log ratio)": -0.023}
{"variant": "GGAUCUUCUCGAUCUAACAAAAAAGACAAAUCUGCCACAAAGCUUGAGAGCAUCGUAGCAUGCAGAGGCGGCAGCCUUCGGUGGAGCGAUAGCGCCAACGUUCUCAACUAUGACGCGCUAAACGCGUGCUCCGUUGAAUGGAGUUUAUCAUG", "note": "[U55G C57A G59C C85A A115G A119U]", "polymerase ribozyme fitness (log ratio)": -2.01}
{"variant": "GGAUCUUCUCGAUCUAACAAAAAAGACAAAUCUGCCACAAAGCUUGAGAGCAUCGUCGGAUGCAGAGGCGACAGCCUUCGGUGGCGGGAUAGCGCCAACGUUCUCAACUAUCACACGCAAAACGCGUGCUCCGUUGAAUGGAGUUUAUCAUG", "note": "[U55G G71A C87G G112C]", "polymerase ribozyme fitness (log ratio)": "≤ -4.2"}
{"variant": "GGAUCUUCUCGAUCUAACAAAAAAGACAAAUCUGCCACAAAGCUUGAGAGCAUCGUCGGAUGCAGAGGCGGCAGCCUUCGGUGACGCGAUAGCGCCAACGUUCUCAACUAUGACACGCAAAACGCGUGCUCCGUUGAAUGGAGUUUAUCAUG", "note": "[U55G G84A]", "polymerase ribozyme fitness (log ratio)": -1.68}
{"variant": "GGAUCUUCUCGAUCUAACAAAAAAGACAAAUCUGCCACAAAGCUUGAGAGCAUCGUCCGAUGCAGAGGCGGCAGCCUUCGGUGGCGCGAUAGCGCCAACGUUCUCAACUAUGACAUGCAAAACGCGUGCUCCGUUGAAUGGAAUUUAUCAUG", "note": "[U55G G58C C116U G143A]", "polymerase ribozyme fitness (log ratio)": -1.24}
{"variant": "GGAUCUUCUCGAUCUAACAAAAAAGACAAAUCUGCCACAAAGCUUGAGAGCAUCGUCGGAUGCAGAGGCGGCAGCCUUCGGUGGCGCUAUAGCACCAACGUUCUCAACUAUGACACGCAAAACAGAUGCUCCGUUGAAUGGUGUUUAUCAUG", "note": "[U55G G88U G94A G124A C125G G126A A142U]", "polymerase ribozyme fitness (log ratio)": "≤ -4.2"}
{"variant": "GGAUCUUCUCGAUCUAACAAAAAAGACAAAUCUGCCACAAAGCUUGAGAGCAUCGUCGGAUGCAGAGGCGGCAGCCUUCGGUGGGGCUAUAUCGCCAACGUUCUCAAUUAUGACACGCAAAACGCGUGCUCCGUUGAAUGGAGUUUAUCAUG", "note": "[U55G C85G G88U G92U C108U]", "polymerase ribozyme fitness (log ratio)": "≤ -4.2"}
{"variant": "GGAUCUUCUCGAUCUAACAAAAAAGACAAAUCUGCCACAAAGCUUGAGAGCAUCGUCGGAUGCAGAGGCGGCAGCCUUCGGUGGCGCGAUAUCGCCAACGUUCUCAACUAUGACACACAAUUCGCGUGCUCCGUUGAAUGGAGUUUAUCAGG", "note": "[U55G G92U G117A A121U A122U U151G]", "polymerase ribozyme fitness (log ratio)": "≤ -4.2"}
{"variant": "GGAUCUUCUCGAUCUAACAAAAAAGACAAAUCUGCCACAAAGCUUGAGAGCAUCGUCGGAUGCAGAGGCGGCAGCCUUCGGUGGCGCGAUAGCGCCAACGUUCUCAACUAUGACACGCAAAACGGGUGCUCCGUUGAAUGGAGUUUAUCAGG", "note": "[U55G C125G U151G]", "polymerase ribozyme fitness (log ratio)": "≤ -4.2"}
{"variant": "GGAUCUUCUCGAUCUAACAAAAAAGACAAAUCUGCCACAAAGCUUGAGAGCAUCGUCGGAUGCAGAGGCGGCAGCCUUCGGUUGUGCGUUAGCGACAACGUUCUCAACUAUGACACGCAAAACGCGUGCUCCGUUGAAUGGAGUUUAUCAUG", "note": "[U55G G83U C85U A89U C95A]", "polymerase ribozyme fitness (log ratio)": -3.88}
{"variant": "GGAUCUUCUCGAUCUAACAAAAAAGACAAAUCUGCCACAAAGCUUGAGAGCAUCGUCGGAUGCAGAGGCGGCAGCCUUCGGUGGCGAGAUAGCGCCAACGUUCUCAACUAUGACACGCAAAACGCGUGCUCCGUUGAAUGGAGUUUAUCAUG", "note": "[U55G C87A]", "polymerase ribozyme fitness (log ratio)": -4.1}
{"variant": "GGAUCUUCUCGAUCUAACAAAAAAGACAAAUCUGCCACAAAGCUUGAGAGCAUCGUCGGAUGCAGAGGCGGCAGCCUUCGGUGGCGCUAUAGCGCCAACGUUCUCAACUAUGACACGCAAAACGCGUGCUCCGUUGAAUGGAGUUUAUCAUG", "note": "[U55G G88U]", "polymerase ribozyme fitness (log ratio)": -4.02}
{"variant": "GGAUCUUCUCGAUCUAACAAAAAAGACAAAUCUGCCACAAAGCUUGAGAGCAUCGUCGGAUGCAGAGGCGGCAGCCUUCGGUGGCGCGAUAGCGCAAACGUUCUCAACGAUGACACGCAAAACGCGUGCUCCGUUGAAUGGAAUUUAUCAUG", "note": "[U55G C96A U109G G143A]", "polymerase ribozyme fitness (log ratio)": -3.3}
{"variant": "GGAUCUUCUCGAUCUAACAAAAAAGACAAAUCUGCCACAAAGCUUGAGAGCAUCGUCGGAUGCAGAGGCGGCAGCCUUCGGUGGCGCGAUAGCGCCAACGUUCUCAACUAUGACAGGCAAAACGCGUGCUCCGUUGAAUGGAGUUUAUCAUG", "note": "[U55G C116G]", "polymerase ribozyme fitness (log ratio)": 0.357}
{"variant": "GGAUCUUCUCGAUCUAACAAAAAAGACAAAUCUGCCACAAAGCUUGAGAGCAUCGUCGGAUGCAGAGGCGGCAGCCUUGGGUGGCGCGAUAGCGCCAACGUUCUCAACUAUGACACGCAAAACGCGUGCUCCGUUGAAUGGAGUUUAUCAUG", "note": "[U55G C79G]", "polymerase ribozyme fitness (log ratio)": -3.78}
{"variant": "GGAUCUUCUCGAUCUAACAAAAAAGACAAAUCUGCCACAAAGCUUGAGAGCAUCGUCGGAUGCAGAGGCGGCAGCCUUCGGUGGUGCGAUGGCACCAACGUUCUCAACUAUGACACGCAAAACGCGUGCUCCGUUGAAUGGAGUUUAUCAUG", "note": "[U55G C85U A91G G94A]", "polymerase ribozyme fitness (log ratio)": -3.29}
{"variant": "GGAUCUUCUCGAUCUAACAAAAAAGACAAAUCUGCCACAAAGCUUGAGAGCAUCGUCGGAUGCAGAGGCGGCAGCCUUCGGUGGCGCGAUAGCGCUAACGUUCUUAACUAUGACACGCAAAACGCGUGCUCCGUUGAAUGGAAUUUAUCAUG", "note": "[U55G C96U C105U G143A]", "polymerase ribozyme fitness (log ratio)": -0.651}
